Assay results from the supplement of paper PMC7125110.
± gives the standard error. This sample holds only a part of the variants without activity.

B1: glmS ribozyme (parent)
chain: AUAAAAGCGCCAGAACUACAGAAAUGUAGUUGACGAGGAGGAGGUUUAUCGAAUUUUCGGCGGAUGCCUCCAAA

Assays:
Conditions in all cases: with glucosamine-6-phosphate
glucosamine-6-phosphate [1] = variants of: B1; assay: self-cleavage kobs at 640 uM GlcN6P; higher = faster cleavage; RNA array
Outline: (§1)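 The measurements used barcoded ribozyme variants on sequenced MiSeq chips, transcribed in situ by E. coli RNA polymerase and tracked at 37 °C with a hybridised Cy3 probe. Glucosamine-6-phosphate, 40 μM to 10 mM in HEPES/KCl/Mg(OAc)2 buffer, was flowed in while tiles were imaged over ~14 h. Baseline-normalised signals, also normalised to non-cleaving reference variants, gave per-tile medians that were fit to one- or two-exponential decays for kobs. kcat and KM resulted from weighted Michaelis–Menten fits across concentrations.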

glucosamine-6-phosphate [2] = variants of: B1; assay: self-cleavage kobs at 2500 uM GlcN6P; higher = faster cleavage; RNA array
Outline: as §1

glucosamine-6-phosphate [3] = variants of: B1; assay: self-cleavage kobs at 10000 uM GlcN6P; higher = faster cleavage; RNA array
Outline: as §1

Variant	self-cleavage kobs at 640 uM GlcN6P (glucosamine-6-phosphate [1])	self-cleavage kobs at 2500 uM GlcN6P (glucosamine-6-phosphate [2])	self-cleavage kobs at 10000 uM GlcN6P (glucosamine-6-phosphate [3])
A12G A15U U45C G59A	< 1e-05 s⁻¹	< 1e-05 s⁻¹	–
G40U G44U G62U	< 1e-05 s⁻¹	< 1e-05 s⁻¹	–
A12G G37U A48G	< 1e-05 s⁻¹	< 1e-05 s⁻¹	–
G32U C50U C61U	< 1e-05 s⁻¹	< 1e-05 s⁻¹	–
A33U G41U A48C C68U	< 1e-05 s⁻¹	–	–
G7A A39U A48C	< 1e-05 s⁻¹	< 1e-05 s⁻¹	–
C8A A53G G63U	< 1e-05 s⁻¹	–	–
G29C U56A C67G	4.47e-05 ± 2.1e-05 s⁻¹	7.09e-05 ± 2e-05 s⁻¹	–
A15C G44C U56C	< 1e-05 s⁻¹	–	–
A52C G62A G63C	< 1e-05 s⁻¹	–	–
G37A A48C U55G	< 1e-05 s⁻¹	–	–
A36G U45A U49C	< 1e-05 s⁻¹	< 1e-05 s⁻¹	–
A6G G7A C10U G44C G60C	< 1e-05 s⁻¹	< 1e-05 s⁻¹	–
U45C U65C G66U C68G	< 1e-05 s⁻¹	< 1e-05 s⁻¹	–
C8G A12U A36C	< 1e-05 s⁻¹	–	–
G32C U56A U65G U69G	0.000283 ± 0.0001 s⁻¹	6.06e-05 ± 3e-05 s⁻¹	–
A12C U30A U56A	0.000365 ± 0.00012 s⁻¹	0.00105 ± 0.00026 s⁻¹	0.00357 ± 0.00086 s⁻¹
A33C G35C A42G G51U C70G	< 1e-05 s⁻¹	< 1e-05 s⁻¹	–
G29C G59U C71U	< 1e-05 s⁻¹	–	–
C34U G37A A39G	< 1e-05 s⁻¹	< 1e-05 s⁻¹	–
U49C C50A C70A	7.42e-05 ± 3.6e-05 s⁻¹	–	–
C11U A53G G66A	0.000178 ± 4e-05 s⁻¹	–	–

Variant	self-cleavage kobs at 640 uM GlcN6P (glucosamine-6-phosphate [1])	self-cleavage kobs at 2500 uM GlcN6P (glucosamine-6-phosphate [2])	self-cleavage kobs at 10000 uM GlcN6P (glucosamine-6-phosphate [3])
G37U A48G C70U	< 1e-05 s⁻¹	–	–
A15G G35C A42U C50G C68A C71U	< 1e-05 s⁻¹	< 1e-05 s⁻¹	–
A33C A36U G37U C71U	< 1e-05 s⁻¹	< 1e-05 s⁻¹	–
C8G C67U C70G	< 1e-05 s⁻¹	–	–
G32U G62A C67A	< 1e-05 s⁻¹	–	–
A39G A42G C50A	< 1e-05 s⁻¹	< 1e-05 s⁻¹	–
G7C A64C	< 1e-05 s⁻¹	–	–
G29U U55G G59U C70G	0.00019 ± 4.5e-05 s⁻¹	–	–
C10A G35C C70U	< 1e-05 s⁻¹	–	–
C16A G66U C68G	6.61e-05 ± 2.5e-05 s⁻¹	6.82e-05 ± 2.8e-05 s⁻¹	–
C11G G41U C50U	< 1e-05 s⁻¹	< 1e-05 s⁻¹	–
G29C G40A U65G	< 1e-05 s⁻¹	–	–
G29C G51A C67G C68G U69G	5.75e-05 ± 2.7e-05 s⁻¹	–	–
A14C C34U U54C	< 1e-05 s⁻¹	< 1e-05 s⁻¹	< 1e-05 s⁻¹
A39U G43U C50U	< 1e-05 s⁻¹	< 1e-05 s⁻¹	–
G51U C70A	5.2e-05 ± 1.5e-05 s⁻¹	–	–
A53U C58A C68U	9.67e-05 ± 3.2e-05 s⁻¹	6.03e-05 ± 2e-05 s⁻¹	–
G41A G51A C68G	< 1e-05 s⁻¹	–	–
C11U C61G C67A	0.000183 ± 5.6e-05 s⁻¹	0.000446 ± 0.00017 s⁻¹	–
C8A A33G C34A	< 1e-05 s⁻¹	–	–
U46A A52C C61U	< 1e-05 s⁻¹	< 1e-05 s⁻¹	–
A39U A53C C71A	8.85e-05 ± 1.7e-05 s⁻¹	0.000186 ± 5.3e-05 s⁻¹	–

Variant	self-cleavage kobs at 640 uM GlcN6P (glucosamine-6-phosphate [1])	self-cleavage kobs at 2500 uM GlcN6P (glucosamine-6-phosphate [2])	self-cleavage kobs at 10000 uM GlcN6P (glucosamine-6-phosphate [3])
C11U A36C G43U C71A	< 1e-05 s⁻¹	–	–
C11A C67U C71G	0.000295 ± 9e-05 s⁻¹	0.00108 ± 0.00018 s⁻¹	4.96e-05 ± 1.3e-05 s⁻¹
A12U U31A C34U G37C C70U	< 1e-05 s⁻¹	–	–
U49A C50A C70G	5.26e-05 ± 2.2e-05 s⁻¹	4.46e-05 ± 2e-05 s⁻¹	–
G29A G44U U54A U57A C61U C68A	< 1e-05 s⁻¹	< 1e-05 s⁻¹	–
C50G C58U C61U	0.000479 ± 0.00011 s⁻¹	–	–
A14G G35U A52U	< 1e-05 s⁻¹	–	–
G35C G44C	< 1e-05 s⁻¹	–	< 1e-05 s⁻¹
C8A U69A	0.00169 ± 0.00074 s⁻¹	–	–
G13U A14U G44C A52G C58G	< 1e-05 s⁻¹	–	–
G13U C50A U69G	0.000105 ± 3.4e-05 s⁻¹	5.37e-05 ± 1.8e-05 s⁻¹	–
U46A A53G U65G	0.000479 ± 0.00011 s⁻¹	–	–
U31G G51U	< 1e-05 s⁻¹	–	–
U30A C71G	0.000371 ± 0.00016 s⁻¹	0.000129 ± 5.8e-05 s⁻¹	0.00032 ± 7.6e-05 s⁻¹
C10G G35A A42C	< 1e-05 s⁻¹	< 1e-05 s⁻¹	–
G7U C8A C10U U46C A52U	< 1e-05 s⁻¹	–	–
C8U C19A G35A A36U G51U	< 1e-05 s⁻¹	–	–
A48U C50G C70U	9.42e-05 ± 2.9e-05 s⁻¹	–	–
A14C A53U C67U	0.000153 ± 4.6e-05 s⁻¹	0.000626 ± 0.0002 s⁻¹	–
A14G U54C C61G G62C	< 1e-05 s⁻¹	–	–
C61G G63A C71G	0.000127 ± 4.2e-05 s⁻¹	0.000255 ± 9.2e-05 s⁻¹	–
A14G U47A G66C	0.000364 ± 0.00011 s⁻¹	0.00101 ± 0.00023 s⁻¹	0.00125 ± 0.00022 s⁻¹
